Where a chain is given by its changes, count along the chain named. Names and notes keep the numbering of the source.
Biological target: T1, EsCas13d, nuclease-dead (Eubacterium siraeum, UniProt B0MS50, R295A;H300A;R849A;H854A)
T1 sequence: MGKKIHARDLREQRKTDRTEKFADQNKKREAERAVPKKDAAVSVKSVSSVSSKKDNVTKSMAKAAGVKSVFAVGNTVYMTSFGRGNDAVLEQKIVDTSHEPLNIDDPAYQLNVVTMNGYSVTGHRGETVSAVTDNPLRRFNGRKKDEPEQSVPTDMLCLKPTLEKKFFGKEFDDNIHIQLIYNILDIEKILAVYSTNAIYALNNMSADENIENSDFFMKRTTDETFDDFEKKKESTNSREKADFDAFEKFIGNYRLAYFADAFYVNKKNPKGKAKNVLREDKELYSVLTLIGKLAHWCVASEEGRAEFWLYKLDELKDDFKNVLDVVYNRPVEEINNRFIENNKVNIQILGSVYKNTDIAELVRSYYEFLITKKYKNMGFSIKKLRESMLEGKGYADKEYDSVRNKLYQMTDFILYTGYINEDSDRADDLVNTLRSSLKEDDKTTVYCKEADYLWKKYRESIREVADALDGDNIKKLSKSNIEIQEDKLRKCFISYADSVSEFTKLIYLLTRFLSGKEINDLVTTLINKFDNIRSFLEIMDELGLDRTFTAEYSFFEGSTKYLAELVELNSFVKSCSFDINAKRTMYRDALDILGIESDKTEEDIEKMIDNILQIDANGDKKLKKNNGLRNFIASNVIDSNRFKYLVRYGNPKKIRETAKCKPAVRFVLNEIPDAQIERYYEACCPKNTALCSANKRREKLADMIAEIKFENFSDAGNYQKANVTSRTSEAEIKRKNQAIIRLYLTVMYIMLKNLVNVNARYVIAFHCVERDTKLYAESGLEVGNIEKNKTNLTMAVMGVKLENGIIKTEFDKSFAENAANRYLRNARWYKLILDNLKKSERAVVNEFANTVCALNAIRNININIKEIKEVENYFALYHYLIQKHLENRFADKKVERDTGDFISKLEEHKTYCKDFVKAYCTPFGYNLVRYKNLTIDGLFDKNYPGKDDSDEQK
Test: crRNA (strand 1, pre-loaded); Mg2+; 40 mM Tris-HCl pH 7.5, 150 mM NaCl, 6 mM MgCl2, 1 mM DTT, 0.1% Tween-20, 0.2 mg/ml BSA; 25 C; 10 min per concentration, then washed
Conditions: tags: His6-TwinStrep-SUMO cleaved; N-terminal SNAP kept (SNAP-Surface 488); label: 3' end held by stalled T7 RNA polymerase

B1: target 1 C2A,U8A (mixed)
RNA 1: CACCCGUGCAAAAAUGCAGGGGUCUAAAACUGAGCGGAUAACCUCUCUAUGG
RNA 2: GGGAAUGGAUCCACAUCUACGAAUUCGUACCAUAGAGAGGUUAACCGCUAACCGAGAUCGGAAGAGCACACGU
Kd: 19.7 ± 0.8 nM

B2: target 2 MT 5'PFS GCC 3'PFS CAA (mixed)
RNA 1: CACCCGUGCAAAAUUGCAGGGGUCUAAAACCUUCUCCAAAUUGUUUCAUCCU
RNA 2: GGGAAUGGAUCCACAUCUACGAAUUCGCCAGGAUGAAACAAUUUGGAGAAGCAAAGAUCGGAAGAGCACACGU
Kd: ~27 nM

B3: target 2 MT 5'PFS GUC 3'PFS AAA (mixed)
RNA 1: B2 RNA 1
RNA 2: B2 RNA 2 with C28U, C52A
Kd: 8.8 ± 1.5 nM

B4: target 2 MT 5'PFS AUG 3'PFS ACU (mixed)
RNA 1: B2 RNA 1
RNA 2: B2 RNA 2 with G27A, C28U, C29G, C52A, A53C, A54U
Kd: 11.6 ± 1.9 nM

B5: target 2 MT 5'PFS UAA 3'PFS CAA (mixed)
RNA 1: B2 RNA 1
RNA 2: B2 RNA 2 with G27U, C28A, C29A
Kd: 2.4 ± 0.4 nM

B6: target 2 MT 5'PFS GUC 3'PFS AAU (mixed)
RNA 1: B2 RNA 1
RNA 2: B2 RNA 2 with C28U, C52A, A54U
Kd: 12.8 ± 2.8 nM

B7: target 2 MT 5'PFS UAA 3'PFS CAU (mixed)
RNA 1: B2 RNA 1
RNA 2: B2 RNA 2 with G27U, C28A, C29A, A54U
Kd: 4.9 ± 0.8 nM

B8: target 2 MT 5'PFS UGC 3'PFS GGC (mixed)
RNA 1: B2 RNA 1
RNA 2: B2 RNA 2 with G27U, C28G, C52G, A53G, A54C
Kd: 43 ± 10 nM

B9: target 2 MT 5'PFS GAG 3'PFS UCA (mixed)
RNA 1: B2 RNA 1
RNA 2: B2 RNA 2 with C28A, C29G, C52U, A53C
Kd: 8 ± 0.8 nM

B10: target 2 MT 5'PFS UUU 3'PFS AUU (mixed)
RNA 1: B2 RNA 1
RNA 2: B2 RNA 2 with G27U, C28U, C29U, C52A, A53U, A54U
Kd: 9.1 ± 1 nM

B11: target 2 MT 5'PFS UAA 3'PFS CAC (mixed)
RNA 1: B2 RNA 1
RNA 2: B2 RNA 2 with G27U, C28A, C29A, A54C
Kd: 5.6 ± 1.8 nM

B12: target 2 MT 5'PFS GAG 3'PFS UCC (mixed)
RNA 1: B2 RNA 1
RNA 2: B2 RNA 2 with C28A, C29G, C52U, A53C, A54C
Kd: 29 ± 5 nM

B13: target 2 MT 5'PFS UCG 3'PFS AAU (mixed)
RNA 1: B2 RNA 1
RNA 2: B2 RNA 2 with G27U, C29G, C52A, A54U
Kd: ~24 nM

B14: target 2 MT 5'PFS GAG 3'PFS UCU (mixed)
RNA 1: B2 RNA 1
RNA 2: B2 RNA 2 with C28A, C29G, C52U, A53C, A54U
Kd: 16 ± 2.2 nM

B15: target 2 MT 5'PFS GUC 3'PFS AAC (mixed)
RNA 1: B2 RNA 1
RNA 2: B2 RNA 2 with C28U, C52A, A54C
Kd: 9.7 ± 1.5 nM

B16: target 2 MT 5'PFS GAG 3'PFS UCG (mixed)
RNA 1: B2 RNA 1
RNA 2: B2 RNA 2 with C28A, C29G, C52U, A53C, A54G
Kd: 10.7 ± 0.9 nM

B17: target 2 MT 5'PFS GUC 3'PFS AAG (mixed)
RNA 1: B2 RNA 1
RNA 2: B2 RNA 2 with C28U, C52A, A54G
Kd: 16.8 ± 3.5 nM

B18: target 2 MT 5'PFS UCG 3'PFS AAG (mixed)
RNA 1: B2 RNA 1
RNA 2: B2 RNA 2 with G27U, C29G, C52A, A54G
Kd: 32 ± 11 nM
